Reference: patent US20150344583A1

Molecular target: human BCMA (huBCMA) on cells (human) (UniProt Q02223)
Test: FACS, H929 cells, negative control

Chain of human BCMA (huBCMA) on cells (human) (Q02223 whole entry N81S): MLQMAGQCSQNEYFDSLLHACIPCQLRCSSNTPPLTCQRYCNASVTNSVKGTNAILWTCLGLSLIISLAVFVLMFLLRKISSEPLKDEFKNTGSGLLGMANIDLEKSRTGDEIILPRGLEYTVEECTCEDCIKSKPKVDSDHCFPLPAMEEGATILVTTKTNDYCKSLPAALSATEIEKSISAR

Q: How did the MFI turn out when hu IgG1 (antibody) was run?
A: Its MFI is 8 MFI.
